Measurements as given in patent US20240240160A1, “NOVEL OLIVETOL SYNTHASES FOR C[…]” (priority 2021, published 2024).

Tested on: E. coli derivative strain which overexpressed an acyl-CoA synthetase (fadD) gene and expressed an olivetolic acid cyclase (OAC) from Cannabis sativa
Experiment: OL, OLA and PDAL production in E. coli from plasmid-expressed Type-III PKS genes
Assay type: cell-based
Conditions: gene on plasmid; for Total: OL + OLA + PDAL; for OL / OLA / PDAL: constitutive promoter, culture spiked with 4 mM hexanoic acid
Procedure: To test olivetolic acid production in E. coli, strains comprising a putative OLS gene and an OAC gene from C. sativa were inoculated in multi-well plates containing LB supplemented with 1% glucose and appropriate concentrations of antibiotics. After 6 hours of cultivation at 32° C., the cells were transferred with a 10% inoculum to a P-limited seed medium (see Table 2) and cultivated for ˜18 hours at 32° ° C. to reach an OD of 2.0-4.0. The cultures were transferred with a 20% inoculum in a P-minimal medium (see Table 3) supplemented with 2% glucose and appropriate concentrations of antibiotics. After 3 hours of cultivation at 32° C., the culture was spiked with 4 mM hexanoic acid (˜OD 1.5-2.0). The resulting cultures were then harvested at either 3 hours or 21 hours post hexanoic acid spike; a final OD was taken. 300 μL of butyl acetate containing 500 mg/L undecanoic acid was added to each multi-well plate. The plates were then vortexed for 30 minutes at 1500 rpm and centrifuged for 10 minutes at 4500 rpm. 50 μL of organic layer was transferred to a 96-well plate and derivatized with 50 μL of N,O-Bis(trimethylsilyl)trifluoroacetamide (BSTFA). The plate was then incubated at room temperature for 2 hours to allow for complete derivatization. The samples were then run on GC-FID for analytical quantification of olivetolic acid (OLA), olivetol (OL), PDAL, and hexanoic acid.
Olivetol, PDAL, OLA, HTAL, CBGA and combinations thereof were analyzed by LCMS or LCMS/MS methods using C18 reversed phase chromatography coupled to either EXACTIVE™ (ThermoFisher) or QTRAP® 4500 (Sciex) mass spectrometers.
For reversed phase LCMS, compounds were identified by their LC retention times and MRM transitions specific to the compounds. LCMS/MS analysis was conducted on a Shimadzu UHPLC system coupled with AB Sciex QTRAP 4500 mass spectrometer. Agilent Eclipse XDB C18 column (4.6×3.0 mm, 1.8 μm) was used with a 1-min gradient elution at 1 mL/min using water containing 0.1% ammonia acetate as mobile phase A and 90% methanol containing 0.1% ammonia acetate as mobile phase B. The LC column temperature was maintained at 45° C. Negative ionization mode was used for all the analytes.
The genes for 20 Type-III PKS enzymes were codon optimized for E. coli and cloned under control of a constitutive promoter into an expression vector (p15a replicon, carbenicillin resistance marker). The 20 plasmids were transformed into an E. coli derivative strain which overexpressed an acyl-CoA synthetase (fadD) gene and expressed an olivetolic acid cyclase (OAC) from Cannabis sativa.
The in vivo assay procedure and analytical methods were performed as described above.

Molecule	Total	OL	OLA	PDAL	levels of OLA relative to the E. coli strain with OLS from C. sativa
XP_020591420.1: Type-III PKS enzyme from Phalaenopsis equestris (protein, listed as Phalaenopsis equestris, (1)..(387) XP_020591420.1) MPNMESIKKEDGLATIMAIGRALPPNSIDQNSFPDFYFRVHNSEHLMDLKNKFRRICERTAIRKRHFVWNEEVLKQNPCLRTFMEPSLNTRQEIVCSEIPKLGAEAARNAIREWGQPERSITHLIFCTTSGMNLPGADFEAAQILGLNHSVERVMLYQQGCFAGGTVLRLAKCLAESRRGARVLVICAESTTSLVRSPSREHQYDLIAQALFADGASALIIGTEPNAEAGERPIFSIFSTAQVTLPDSGDAIRGYLKEGGLIATLAKDVPLIISENIERCLQEAFGPLGISDWNSIFWAPHPGGRAILDGIEDKLGLKPEKLWAARHVLAEYGNMSSVCVHYILDEMRRRDVKNGKAPTGDGPEWGVLFGFGPGLTVETVVLRRLFL	468 µM	54 µM	36 µM	378 µM	–
PKA53998.1: Type-III PKS enzyme from Apostasia shenzhenica (protein, listed as Apostasia shenzhenica, (1)..(393) PKA53998.1) MPGLQIISKASSRAADGLAAILAIGRANPPNSMDQSSYPEFYFRVMDSDHLVDLKKKFQRICERTAIRKRHFVWNEELLRDNPCLRTFMDSSLNVRQKVAVAEIPKLGAAAAERAIEEWGQPRSGITHLIFCTTSGMDLPGADYQLTKILGLNADVQRVMLYQQGCFAGGTVLRLAKVLAESRKGARVLVVCAETTTVLIRAPSVEHQDDLVTQALFADGASALIVGADPVEEVNERPLFSIISASQVILPDSDGAIGGHLGEGGLTATLHRDVPLIISKNVSKCLEDAFSPLGISDWNSIFWAPHPGGRAILDQVEERVGLKPEKMWASRHVLAEYGNMSSVCVHFVLDEMRKRSAKEGKPTTGEGLEWGVLFGFGPGLTVETVVLRSHPIN	1005 µM	268 µM	256 µM	481 µM	–
AFU07719.1: Type-III PKS enzyme from Paphiopedilum purpuratum (protein, listed as Paphiopedilum purpuratum, (1)..(394) AFU07719.1) MPGLENRKKVEAPKRAEGLATILAIGRANPPNDMEQSTFPDFYFRVTNSEHLVSLKKKFERICEKTAIRRRHFVWNEEILNANPCLRTHMEPSLNVRQKIAVAEIPKLGAEAASRAIEEWGQPKSHITHLIFCTTSGMDLPGADYKLTRILGLNPNVQRVMLYQQGCFAGGTVLRLAKCFAESQKGARVLVVCSETTTVLVRAPSEDYQDDLVTQALFADGASALIVGADPDEEAKEQPIFTIVSATQVILPDSDGAIGGHLGEGGLTATLHRDVPLIISKNVSKCLEEAFGPLGISDWNSIFWAPHPGGRAILDQVEERVGLKPEKLWASRHVLAEYGNMSSVCVHFVLDEIRKRSTKEGKTTTGEGFDWGVLFGFGPGLTVETVILRSVPLN	1406 µM	289 µM	302 µM	815 µM	–
AAX54693.1: Type-III PKS enzyme from Phalaenopsis hybrid cultivar (protein, Phalaenopsis hybrid cultivar; (1)..(390) AAX54693.1) MPTIESIKKAPRAHGFASILAIGKANPENFIEQCHYPDFYFRVTSSEHLVDLKEKFQRMCDRTAIRKRHFVWNEDLLTANPCLRTYMDKSLNIRQEVAIREIPKLGAEAATKAIQEWGQPKSSITHLIFCTTSGMDLPGADFQLTQILGLNPNVERVMLYQQGCFAGGTTLRLAKCLAESREGARVLVVCAETTTVVFRAPSEEHQDDLVTQALFADGASAVIVGVDPNEAAHERASFIIVSASQVLLPDSAGAIGGHVSEGGLTATLHRDVPQIVSKNVGKCLEEAFTPFGISDWNSIFWVPHAGGRAILDQVEERVGLKPEKLSVSRHVLAEYGNMSSVCVHFALDEMRKKSAKEAKATTGEGLEWGVLFGFGPGLTVETVVLHSVPI	1874 µM	606 µM	653 µM	615 µM	over two-fold
AFU07718.1: Type-III PKS enzyme from Paphiopedilum micranthum (protein, listed as Paphiopedilum micranthum, (1)..(394) AFU07718.1) MPGLENRKKVEAPIRAEGLATIMAIGRANPPNAMEQSTFPDFYFRVTNSEHLVGLKKKFQRICEKTAIRRRHFVWNEEILNANPCLRTHMEPSLNVRQKIAVAEIPKMGAEAASRAIEEWGQSKSRITHLIFCTTSGMDLPGADYQLTRILGLNPNVQRVMLYQQGCFAGGTVLRLAKCLAESQKGARVLVVCSETTAVLVRAPSEEYHDDLVTQALFADGASALIVGADPDEEAKERPIFTIVSTTQVILPDSDGAIGGHLGEGGLTATLHRDVPLIISKNVSKCLEEAFTPLGISDWNSIFWAPHPGGRAILDQVEERASLKPEKLWASRHVLTEYGNMSSVCVHFVLDEIRKRSAKEGKATTGEGFDWGVLFGFGPGLTVETVVLRSVPLN	948 µM	159 µM	152 µM	638 µM	–
AHH25569.1: Type-III PKS enzyme from Bletilla striata (protein, listed as Bletilla striata, (1)..(390) AHH25569.1) MPSLDSIKKAPRADGIASILAIGRANPDNIIEQSAYPDFYFRVTNSEHLVDLKKKFQRICEKTAIRKRHFVWNEEFLTSNPSFSTFMDKSLYVRQEVAIREIPKLGAKAATKAIEDWGQPKSRISHLIFCTTSGMDLPGADYQLTQILGLNPNVERLMLYEQGCFAGGTTLRLAKCLAESRKGARVLVVCAETTTVLFRAPSEEHQDDLVTQALFADGASALIVGADPDEAADERASFVIVSTSQVLLPDTAGAIGGHVSEGGLLATLHRDVPQIVTKNVGKCLEEAFTPFGISDWNSIFWVPHPGGRAILDQVEERVGLKPEKLSVSRHVLAEYGNMSSVCVHFALDEMRKRSANEGKPTTGEGLEWGVLFGFGPGLTVETVVLRSVPL	320 µM	93 µM	98 µM	129 µM	–
XP_020704098.1: Type-III PKS enzyme from Dendrobium catenatum (protein, listed as Dendrobium catenatum, (1)..(390) XP_020704098.1) MPSLESIKKAPRADGFASILAIGRANPENFIEQSAYPDLFFRITNSEHLVDLKNKFKRICDKTAIRKRHFVWTEEFITANPCFSTFMDKSLNIRQEVAIREIPKLGAEAATKAIQEWGQPKSRITHLIFCTTSGMDLPGADYQLTQILGLNPNVERVMLYQQGCFAGGTTIRLAKCLAESRKGARVLVVCAETTTVLFRGPSEEHQDDLVTQALFADGASALIVGADPDEAADEHASFVIVSTSQVLLPDSAGAIGGHVSEGGLLATLHRDVPQIVSKNVGKCLEEAFTPLGISDWNSIFWVPHPGGRAILDQVEESVGLKPEKLFISRHVLAEYGNMSSVCVHFALDEMRKRSAKEGKATTGEGLEWGVLFGFGPGVTVETVILRSVPI	1072 µM	432 µM	390 µM	250 µM	–
